Consider 1 molecule from patent US20220324943A1.

This assay has as its target FGF ligands. As to the kind of experiment: cell-based or functional assay.

Some results are limits rather than exact numbers.

B1: FGFR1-CCD fusion protein (protein)
chain: RPSPTLPEQAQPWGAPVEVESFLVHPGDLLQLRCRLRDDVQSINWLRDGVQLAESNRTRITGEEVEVQDSVPADSGLYACVTSSPSGSDTTYFSVNVSDALPSSEDDDDDDDSSSEEKETDNTKPNPVAPYWTSPEKMEKKLHAVPAAKTVKFKCPSSGTPNPTLRWLKNGKEFKPDHRIGGYKVRYATGSIIMDSVVPSDKGNYTCIVENEYGSINHTYQLDVVERSPHRPILQAGLPANKTVALGSNVEFMCKVYSDPQPHIQWLKHIEVNGSKIGPDNLPYVQILKTAGVNTTDKEMEVLHLRNVSFEDAGEYTCLAGNSIGLSHHSAWLTVLEALEERPAVMLKEFMGYQGPPGPPGPPGIPGNHGNNGNNGATGHEGAKGEKGDKGDLGPRGERGQHGPKGEKGYPGIPGYCGPPGPPGPPGIPGNHGNNGNNGATGHEGAKGEKGDKGDLGPRGERGQHGPKGEKGYPGIPDYKDDDDKLQISSTVAAAHHHHHHV
B1 registered an MTT assay of HUVEC cells (cell growth / metabolic activity) of under 50%.
